Article PMC2275139
Read-outs that look alike come from different tables or passages of the source.

Tests used:
[1] = molecular target: T1, IcaR K33E (Staphylococcus epidermidis ATCC 35984 …, UniProt Q5HKQ1 1-185, K33E); assay: ITC
T1 sequence: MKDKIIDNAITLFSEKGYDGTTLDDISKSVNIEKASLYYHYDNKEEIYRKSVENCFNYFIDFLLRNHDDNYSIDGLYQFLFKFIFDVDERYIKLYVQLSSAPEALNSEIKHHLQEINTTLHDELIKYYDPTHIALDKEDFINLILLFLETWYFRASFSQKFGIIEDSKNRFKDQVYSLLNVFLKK

[2] = molecular target: T2, IcaR wild type (Staphylococcus epidermidis ATCC 35984 …, UniProt Q5HKQ1 1-185); assay: EMSA
T2 sequence: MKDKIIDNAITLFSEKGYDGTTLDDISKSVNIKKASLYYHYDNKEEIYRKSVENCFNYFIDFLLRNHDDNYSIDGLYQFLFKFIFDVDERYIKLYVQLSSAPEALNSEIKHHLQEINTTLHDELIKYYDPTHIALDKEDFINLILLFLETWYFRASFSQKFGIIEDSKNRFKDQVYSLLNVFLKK

[3] = molecular target: T2, IcaR wild type; assay: EMSA; remark: listed apart in the source

B1: 28E (dsDNA)
DNA 1: ACAACCTAACTAACGAAAGGTAGGTGAA
DNA 2: TTCACCTACCTTTCGTTAGTTAGGTTGT
binding result [1]: no binding

B2: 16 bp probe (same center as 28E) (dsDNA)
DNA 1: TAACTAACGAAAGGTA
DNA 2: TACCTTTCGTTAGTTA
binding result [2]: no binding

B3: 24E (dsDNA)
DNA 1: AACCTAACTAACGAAAGGTAGGTG
DNA 2: CACCTACCTTTCGTTAGTTAGGTT
binding result [3]: binds
